Laboratory results published in paper PMC4768215, “Targeting surface-layer proteins with single-domain antibodies: a potential therapeutic approach against Clostridium difficile-associated disease” (Applied Microbiology and Biotechnology, 2015).

What was measured:
[1] = biological target: T1, 630 SLP (surface layer protein of C. difficile strain 630, HMW and LMW subunits) (Clostridioides difficile 630 (ribotype …, UniProt Q183M8, strain)); assay: SPR; Biacore 3000; 630 SLP immobilised on a CM5 chip, VHHs injected at various concentrations; data not shown; details: both partners purified
T1 construct: low-molecular-weight (LMW) subunit of the surface layer protein, cut from the precursor SlpA by Cwp84, C. difficile strain 630 (ribotype 012); predicted mass 34.2 kDa; high-molecular-weight (HMW) subunit of the surface layer protein, cut from the precursor SlpA by Cwp84, C. difficile strain 630 (ribotype 012); predicted mass 39.5 kDa; Both subunits come from one precursor, SlpA; source: purified …

[2] = biological target: T2, QCD-32g58 LMW SLP (low-molecular-weight subunit of the QCD-32g58 surface layer protein) (Clostridioides difficile QCD-32g58 …, UniProt A0A9R0BMB3, strain); assay: SPR; Biacore 3000; SEC-purified QCD-32g58 LMW SLP subunit amine-coupled to a CM5 chip; single-concentration screen, 200 nM VHH; 25 °C, 10 mM HEPES pH 7.4, 150 mM NaCl, 3 mM EDTA, 0.005 % P20; details: both partners purified
T2 construct: low-molecular-weight (LMW) subunit of the surface layer protein, cut from the precursor SlpA by Cwp84, C. difficile strain QCD-32g58 (ribotype 027); predicted mass 33.9 kDa; also called QCD-32g58 SLP LMW subunit; LMW subunit; source: purified from C. difficile QCD-32g58 (low-pH glycine extraction, minor SEC peak at about 15 ml); in the Western blot the LMW band of the extracted SLPs

[3] = biological target: T3, QCD-32g58 SLP (surface layer protein of C. difficile strain QCD-32g58, HMW and LMW subunits) (Clostridioides difficile QCD-32g58 …, UniProt A0A9R0BMB3, strain); assay: SPR; Biacore 3000; SEC-purified QCD-32g58 SLP amine-coupled to a CM5 chip, VHH monomer fractions injected at various concentrations; 25 °C, 10 mM HEPES pH 7.4, 150 mM NaCl, 3 mM EDTA, 0.005 % P20; KD by steady-state analysis; details: both partners purified
T3 construct: low-molecular-weight (LMW) subunit of the surface layer protein, cut from the precursor SlpA by Cwp84, C. difficile strain QCD-32g58 (ribotype 027); predicted mass 33.9 kDa; high-molecular-weight (HMW) subunit of the surface layer protein, cut from the precursor SlpA by Cwp84, C. difficile strain QCD-32g58 (ribotype 027); predicted mass 44.2 kDa; Both subunits come from one precursor, SlpA; also …

[4] = biological target: T4, SLP on cells of C. difficile strain BI-1 (ribotype 027) (Clostridioides difficile BI-1 (ribotype …, UniProt A0A9R0BMB3, strain)); assay: ELISA; whole cell ELISA: formalin-fixed C. difficile cells coated on MaxiSorp plates, His6-tagged VHH at 10 μg/ml in PBS-T, 37 °C, 1 h, detected with anti-His6-HRP; details: one partner purified
T4 construct: LMW subunit of the surface layer protein (from the precursor SlpA), C. difficile strain BI-1, ribotype 027; HMW subunit of the surface layer protein (from the precursor SlpA), C. difficile strain BI-1, ribotype 027; Whole cells were the antigen; source: endogenous, on formalin-fixed C. difficile BI-1 cells

[5] = biological target: T5, SLP on cells of C. difficile strain BI-7 (ribotype 027) (Clostridioides difficile BI-7 (ribotype …, UniProt A0A9R0BMB3, strain)); assay: as above; details: one partner purified
T5 construct: LMW subunit of the surface layer protein (from the precursor SlpA), C. difficile strain BI-7, ribotype 027; HMW subunit of the surface layer protein (from the precursor SlpA), C. difficile strain BI-7, ribotype 027; Whole cells were the antigen; source: endogenous, on formalin-fixed C. difficile BI-7 cells

[6] = biological target: T6, SLP on cells of C. difficile strain R20291 (ribotype 027) (Clostridioides difficile R20291 …, UniProt A0A9R0BMB3, strain); assay: as above; details: one partner purified
T6 construct: LMW subunit of the surface layer protein (from the precursor SlpA), C. difficile strain R20291, ribotype 027; HMW subunit of the surface layer protein (from the precursor SlpA), C. difficile strain R20291, ribotype 027; Whole cells were the antigen; source: endogenous, on formalin-fixed C. difficile R20291 cells

[7] = biological target: T7, SLP on cells of C. difficile strain 196 (ribotype 027) (Clostridioides difficile 196 (ribotype …, UniProt A0A9R0BMB3, strain)); assay: as above; details: one partner purified
T7 construct: LMW subunit of the surface layer protein (from the precursor SlpA), C. difficile strain 196, ribotype 027; HMW subunit of the surface layer protein (from the precursor SlpA), C. difficile strain 196, ribotype 027; Whole cells were the antigen; source: endogenous, on formalin-fixed C. difficile 196 cells

[8] = biological target: 630 SLP (surface layer protein of C. difficile strain 630, HMW and LMW subunits) (Clostridium difficile strain 630); assay: SPR; Biacore 3000; 630 SLP immobilised on a CM5 chip, VHHs injected at various concentrations; data not shown
[9] = biological target: QCD-32g58 LMW SLP (low-molecular-weight subunit of the QCD-32g58 surface layer protein) (Clostridium difficile strain QCD-32g58); assay: SPR; Biacore 3000; SEC-purified QCD-32g58 LMW SLP subunit amine-coupled to a CM5 chip; single-concentration screen, 200 nM VHH; 25 °C, 10 mM HEPES pH 7.4, 150 mM NaCl, 3 mM EDTA, 0.005 % P20

Binder | binding result [1] | Kd [2] [nM] | koff [2] [s⁻¹] | kon [2] [M⁻¹ s⁻¹] | Kd [3] [nM] | binding result [4] | binding result [5] | binding result [6] | binding result [7] | Kd [8] [nM] | Kd [9] [nM] | koff [9] [s⁻¹] | kon [9] [M⁻¹ s⁻¹]
SLP_VHH50 (VHH, From an immune llama phage display library panned on QCD-32g58 SLP; source: monomeric SEC fractions for SPR; not shown: His6, C-terminal, kept) VHH: QVKLEESGGGLVQPGGSLRLSCAASGFTLDYYTIGWFRQAPGKEREGVACISSDDRTYYVDSVKGRFAISRDNVKNTVYLQMNNLKPEDTAVYYCASKESVFLIATMKGCAPGHDDYWGQGTQVTVSS | no binding | 14 | 0.0027 | 190000 | 75 | binds | binds | binds | binds |  |  |  | 
SLP_VHH22 (VHH, From an immune llama phage display library panned on QCD-32g58 SLP; source: monomeric SEC fractions for SPR; not shown: His6, C-terminal, kept) VHH: QVQLVESGGGLVQPGGSLRLSCAASGFTLDSYAIGWFRQAPGKEHEGISCISSNGGSTYYTDSVKGRFTISRDNAKNTVYLQMNSLESEDSAVYYCATVRRCSSLDMALGALATRTKGYDYWGQGTQVTVSS | no binding | 8 | 0.0011 | 130000 | 180 | binds | binds | binds | binds |  |  |  | 
SLP_VHH26 (VHH, From an immune llama phage display library panned on QCD-32g58 SLP; source: monomeric SEC fractions for SPR; not shown: His6, C-terminal, kept) VHH: QVKLEESGGGLVQAGGSLRLSCAASGRTFTNYAMAWFRQASGKEREFVAIISQSGGRTYYGDSVKGRFTISRDNAKNTVYLQLNSLQPEDTGVYYCAAGDSPYYYSRSRYDLWGPGTQVTVSS |  |  |  |  | 580 | binds | binds | binds | binds | 2000 | 460 | 0.097 | 210000
